In the Human Domainome abundance scans (Beltran et al. 2025):
± gives the uncertainty stated by the source.

B1: RUN and FYVE domain-containing protein 1, residues 639 to 698; numbered along this chain, Q96T51 (parent)
chain: WLKDDEATHCRQCEKEFSISRRKHHCRNCGHIFCNTCSSNELALPSYPKPVRVCDSCHTL

Variants of: B1
Experiment: abundance fitness (aPCA) (normalised: wild type 0, dead -1); higher = more abundant; growth selection in yeast, the domain comes from the species named
Conditions: Homo sapiens

Abundance fitness of substitutions, site by site:
C10: H -0.665 ± 0.27, L -0.74 ± 0.069, W -0.519 ± 0.06, I -0.636 ± 0.1, R -0.843 ± 0.058, T -0.711 ± 0.072, A -0.765 ± 0.068, V -0.815 ± 0.059, Y -0.72 ± 0.072, F -0.776 ± 0.1, G -0.849 ± 0.052, N -0.837 ± 0.14, E -0.687 ± 0.076, K -0.766 ± 0.1, M -1.02 ± 0.16, Q -0.678 ± 0.085
C13: D -0.874 ± 0.13, W -0.82 ± 0.073, T -0.83 ± 0.079, K -1.07 ± 0.14, E -0.738 ± 0.07, N -0.712 ± 0.12, R -0.802 ± 0.061, M -0.943 ± 0.094, S -0.899 ± 0.081, L -0.913 ± 0.058, G -0.684 ± 0.064, H -0.975 ± 0.17, F -0.707 ± 0.12, P -0.984 ± 0.12, Q -0.806 ± 0.086, I -1.01 ± 0.28, V -0.951 ± 0.059
T8: K -0.026 ± 0.06, G -0.062 ± 0.036, Y -0.349 ± 0.065, H 0.025 ± 0.054, L -0.009 ± 0.032, P -0.187 ± 0.063, E -0.085 ± 0.057, C -0.325 ± 0.063, I 0.047 ± 0.046, R -0.009 ± 0.031, V -0.269 ± 0.046, S -0.016 ± 0.038, M 0.022 ± 0.058, A -0.204 ± 0.056, Q 0.008 ± 0.048, D -0.087 ± 0.056
Q12: H -0.27 ± 0.072, K -0.449 ± 0.064, W -0.69 ± 0.078, L -0.298 ± 0.039, A -0.171 ± 0.044, Y -0.279 ± 0.082, P -1.17 ± 0.13, I -0.068 ± 0.11, C 0.039 ± 0.052, N -0.106 ± 0.085, G 0.208 ± 0.034, S -0.412 ± 0.051, E -0.225 ± 0.047, M -0.27 ± 0.055, T -0.565 ± 0.051, R -0.303 ± 0.051, F -0.458 ± 0.087, D -0.051 ± 0.053
R11: V -0.155 ± 0.04, Y 0.121 ± 0.042, T 0.044 ± 0.052, S 0.203 ± 0.04, M 0.226 ± 0.044, E 0.079 ± 0.038, A 0.227 ± 0.032, L 0.161 ± 0.034, D 0.057 ± 0.066, F -0.023 ± 0.056, H 0.044 ± 0.068, W 0.224 ± 0.056, Q 0.05 ± 0.048, G 0.127 ± 0.035, K 0.229 ± 0.053, N -0.093 ± 0.12, P -0.03 ± 0.053
F17: D -0.467 ± 0.087, G -0.793 ± 0.052, E -0.68 ± 0.065, A -0.927 ± 0.078
E14: R -0.431 ± 0.049, P -0.856 ± 0.12, W -0.24 ± 0.055, Q -0.113 ± 0.065, S -0.168 ± 0.041, F -0.204 ± 0.05, G 0.006 ± 0.034, K -0.439 ± 0.065, I -0.167 ± 0.061, L -0.377 ± 0.044, M -0.212 ± 0.053, D -0.083 ± 0.07, C -0.243 ± 0.064, V -0.41 ± 0.045, N -0.459 ± 0.092, H -0.127 ± 0.081, A -0.08 ± 0.033
H9: A 0.136 ± 0.047, Q -0.248 ± 0.061, R -0.23 ± 0.036, P -0.822 ± 0.079, S -0.115 ± 0.036, F -0.135 ± 0.049, Y -0.357 ± 0.06, N -0.046 ± 0.062, G -0.22 ± 0.05, I -0.216 ± 0.07, T -0.221 ± 0.045, W -0.532 ± 0.057, K -0.09 ± 0.046, E -0.418 ± 0.08, M -0.108 ± 0.046
K15: C -0.196 ± 0.049, M -0.373 ± 0.091, L -0.188 ± 0.037, V -0.359 ± 0.048, H -0.074 ± 0.056, W -0.449 ± 0.049, E -0.009 ± 0.049, D -0.233 ± 0.075, I -0.143 ± 0.062, G -0.088 ± 0.041, R -0.053 ± 0.029, S -0.098 ± 0.034, A -0.527 ± 0.053, T -0.154 ± 0.046, Q -0.082 ± 0.047, N -0.058 ± 0.066, Y -0.191 ± 0.062, P -0.999 ± 0.095
A7: W -0.154 ± 0.041, V -0.108 ± 0.039, Q 0.04 ± 0.058, Y -0.092 ± 0.048, S 0.092 ± 0.033, M -0.302 ± 0.055, P -0.114 ± 0.053, R -0.031 ± 0.031, L -0.234 ± 0.038, T 0.014 ± 0.04, K -0.384 ± 0.09, N -0.204 ± 0.065
E16: A -0.286 ± 0.04, N -0.029 ± 0.06, T -0.339 ± 0.062, S -0.179 ± 0.04, D -0.123 ± 0.074, R -0.412 ± 0.043, W -0.638 ± 0.064, Y -0.349 ± 0.071, P -0.195 ± 0.055, G -0.18 ± 0.036, K -0.387 ± 0.08, C -0.29 ± 0.043, L -0.314 ± 0.041, Q -0.329 ± 0.077, H -0.089 ± 0.1, V -0.282 ± 0.048, F -0.245 ± 0.074
